Consider three molecules from patent US20030235860A1, “Interactions between AR, ER, TR2, and TR4” (priority 1999, published 2003).

The target of the assay is T1, GST-TR4 (Homo sapiens, UniProt P49116).
T1 construct: which used the full length of TR4 containing AF-1; made in house
T1 sequence (P49116 1-615 isoform P49116-2 N175S/W419R/A428G/K503N/L504W/A613V): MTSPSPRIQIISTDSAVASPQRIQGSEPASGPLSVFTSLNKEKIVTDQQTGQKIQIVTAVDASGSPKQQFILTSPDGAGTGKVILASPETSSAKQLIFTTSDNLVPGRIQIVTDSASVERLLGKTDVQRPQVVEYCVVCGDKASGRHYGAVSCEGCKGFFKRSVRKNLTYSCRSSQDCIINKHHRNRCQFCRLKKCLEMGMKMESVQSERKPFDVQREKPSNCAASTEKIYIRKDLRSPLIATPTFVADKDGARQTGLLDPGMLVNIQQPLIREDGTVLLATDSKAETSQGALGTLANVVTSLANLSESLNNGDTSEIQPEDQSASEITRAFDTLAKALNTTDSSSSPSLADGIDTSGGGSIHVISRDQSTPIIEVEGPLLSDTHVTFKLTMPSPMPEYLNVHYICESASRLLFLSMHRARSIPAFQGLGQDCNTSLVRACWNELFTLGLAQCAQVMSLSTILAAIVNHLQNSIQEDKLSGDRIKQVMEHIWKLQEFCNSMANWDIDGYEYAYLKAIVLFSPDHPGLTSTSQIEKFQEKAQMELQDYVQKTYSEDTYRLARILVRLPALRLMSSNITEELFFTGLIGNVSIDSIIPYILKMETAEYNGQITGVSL
The assay can be described thus: GST-TR4 pull-down assay. The format is binding. The conditions noted are these: for Interaction with GST-TR4 fusion protein: [35S]-methionine labeled proteins, absence of E2, Example 3; for Interaction with GST-TR4 in pull-down assay: in vitro translated 35S methionine-labeled proteins, Example 1. The protocol:
GST-TR4 fusion protein and GST control protein were purified as instructed by the manufacturer (Pharmacia). […] of in vitro translated 35S methionine-labeled proteins were used to perform a pull-down assay as described previously. Cacailles, et al., EMBO 14, 3741-3751 (1995).
Using a GAL4-TR4 fusion protein as bait, the yeast two-hybrid system was used to isolate several potential TR4 associated proteins. […] A GST-TR4 fusion protein pull-down assay was performed to further confirm the result. GST-TR4 fusion protein and GST control protein were purified as instructed by the manufacturer (Pharmacia).
A GST pull-down assay was performed according to the methods described previously (Lee, Y. et al. (1999) Proc. Natl. Acad Sci. USA. 96(26) 14724-9).
Briefly, the GST fusion protein and GST control protein were expressed in an Escherichia coli strain BL21 (DE3) pLys bacterial culture and recovered on glutathione-Sepharose-4B beads. Equal amounts of GST fusion protein bound to glutathione-Sepharose-4B beads were incubated for 2 h at 4° C. with 5 μl of in vitro translated [^35S]methionine-labeled protein in a total volume of 100 µl of incubation buffer (20 mM HEPES/pH 7.9, 150 mM KCl, 5 mM MgCl2, 0.5 mM EDTA, 0.5 mM dithiothreitol, 0.1% Nonidet P-40, 1 mg/ml bovine serum albumin, and 10% glycerol), and protease inhibitor mixture (1 mM phenylmethylsulfonyl fluoride, 1 μg/ml aprotinin, leupeptin, and pepstatin). The beads were then washed three times with wash buffer (20 mM Tris/pH 8.0, 100 mM NaCl, 1 mM EDTA, and 0.5% Nonidet P-40), boiled in 2×SDS sample buffer, loaded onto SDS-polyacrylamide gels, and visualized by autoradiography.

Turning to AR: androgen receptor, SEQ ID NO:31, the “Interaction with GST-TR4 fusion protein” value is “binds well” and the “Interaction with GST-TR4 in pull-down assay” value is “physically interact”.
For “RXR: retinoid X receptor, another member of the steroid receptor superfamily”, in that order: “unable to interact” and “no interaction”.

B1: TR2: human testicular orphan nuclear receptor 2, 603 amino acids (protein, UniProt P13056 1-603, looked up)
chain: MATIEEIAHQIIEQQMGEIVTEQQTGQKIQIVTALDHNTQGKQFILTNHDGSTPSKVILARQDSTPGKVFLTTPDAAGVNQLFFTTPDLSAQHLQLLTDNSPDQGPNKVFDLCVVCGDKASGRHYGAVTCEGCKGFFKRSIRKNLVYSCRGSKDCIINKHHRNRCQYCRLQRCIAFGMKQDSVQCERKPIEVSREKSSNCAASTEKIYIRKDLRSPLTATPTFVTDSESTRSTGLLDSGMFMNIHPSGVKTESAVLMTSDKAESCQGDLSTLANVVTSLANLGKTKDLSQNSNEMSMIESLSNDDTSLCEFQEMQTNGDVSRAFDTLAKALNPGESTACQSSVAGMEGSVHLITGDSSINYTEKEGPLLSDSHVAFRLTMPSPMPEYLNVHYIGESASRLLFLSMHWALSIPSFQALGQENSISLVKAYWNELFTLGLAQCWQVMNVATILATFVNCLHNSLQQDKMSTERRKLLMEHIFKLQEFCNSMVKLCIDGYEYAYLKAIVLFSPDHPSLENMEQIEKFQEKAYVEFQDYITKTYPDDTYRLSRLLLRLPALRLMNATITEELFFKGLIGNIRIDSVIPHILKMEPADYNSQIIGHSI
modifications: full-length
notes: human testicular orphan nuclear receptor 2, 603 amino acids
Consider B1, for which the “Interaction with GST-TR4 in pull-down assay” value was “physically interact”.
